Experimental data reported in patent US20160083428A1 (CARMEL HAIFA UNIVERSITY ECONOMIC, published 2016).
Ends that are not written are not given here. * marks the point of attachment. Biotin = O=C1N[C@H]2[C@H](CS[C@H]2CCCCC(=O)*)N1

Target: eukaryotic elongation factor 2 (eEF2) (rat, UniProt P05197 2-858)
Assay: pull-down from rat brain homogenate with streptavidin agarose, Western blot

binding result: no binding (tested: 20 micrograms)
B1: peptide 1 (Ac-RRQRYTPFPLGFE-Lys(Biotin)-NH2-OH), peptide derived from the G-H loop of ephrinA4 (peptide)
peptide: Ac-RRQRYTPFPLGFEK(Biotin)
modifications: not fully specified; printed as Ac-RRQRYTPFPLGFE-Lys(Biotin)-NH2-OH
notes: also called pep-ephrinA4; ephrinA4 peptide
